Here are results for 13 molecules from US20110293610A1 (published 2011).

The target of assay [1] is T1, membrane-bound B Lymphocyte Stimulator on U937 plasma membrane preparations (human, UniProt Q9Y275 1-285).
T1 construct: Natural protein in plasma membrane fractions of the human cell line U937 coated on ELISA plates; also called U937 plasma membranes; U937 membranes
As to the kind of experiment: phage ELISA. Background: ELISA stands for enzyme-linked immunosorbent assay.

Assay [2] concerns the target T2, TNF-alpha (human, UniProt P01375 77-233).
T2 construct: also called TNFα; TNF-α
As to the kind of experiment: phage ELISA.

The target of assay [3] is T3, TNF-beta (human, UniProt P01374 35-205).
T3 construct: also called TNFβ; Tumour Necrosis Factor-beta
T3 sequence (looked up): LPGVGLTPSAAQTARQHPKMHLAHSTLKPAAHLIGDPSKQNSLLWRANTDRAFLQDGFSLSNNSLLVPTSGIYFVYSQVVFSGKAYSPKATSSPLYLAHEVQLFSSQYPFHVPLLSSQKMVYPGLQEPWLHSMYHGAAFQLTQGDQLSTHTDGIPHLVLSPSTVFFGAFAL
As to the kind of experiment: phage ELISA.

The target of assay [4] is T4, Fas ligand (human, UniProt P48023 134-281, limits assumed).
T4 sequence (looked up): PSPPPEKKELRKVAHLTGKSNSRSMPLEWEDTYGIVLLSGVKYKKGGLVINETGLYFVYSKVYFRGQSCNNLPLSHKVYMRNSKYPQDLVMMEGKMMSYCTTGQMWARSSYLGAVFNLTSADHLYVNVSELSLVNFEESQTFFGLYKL
Nature of the assay: phage ELISA.

For assay [5], the target named is T5, TRAIL (human, UniProt P50591 114-281).
T5 construct: also called TNF-related apoptosis inducing ligand
T5 sequence (P50591 114-281 limits assumed): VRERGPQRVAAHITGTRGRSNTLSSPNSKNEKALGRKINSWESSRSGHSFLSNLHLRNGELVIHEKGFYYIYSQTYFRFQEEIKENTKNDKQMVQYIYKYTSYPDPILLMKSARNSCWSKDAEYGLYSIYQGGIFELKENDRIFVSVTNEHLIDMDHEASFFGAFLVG
As to the kind of experiment: phage ELISA.

Assay [6] concerns the target T6, B Lymphocyte Stimulator, soluble form (human) (human, UniProt Q9Y275 134-285, biotinylated with NHS-biotin where used as biotinylated B Lymphocyte Stimulator).
T6 construct: Coated on plastic, captured on streptavidin plates, amine-coupled to a CM5 chip or free in solution, depending on the assay; also called BLyS; immobilized B Lymphocyte Stimulator
As to the kind of experiment: phage competition ELISA.

Where a chain is given by its changes, count along the chain named.

T2 sequence (P01375 77-233 limits assumed): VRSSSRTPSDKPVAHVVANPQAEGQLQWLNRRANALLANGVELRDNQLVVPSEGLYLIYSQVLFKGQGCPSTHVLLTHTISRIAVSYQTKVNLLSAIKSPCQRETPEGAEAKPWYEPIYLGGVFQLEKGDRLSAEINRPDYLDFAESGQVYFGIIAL

B1: I029D07 (scFv)
scFv: QVQLQQSGAEVKKPGSSVKVSCKASGYTFTKYTMHWVRQAPGQGPEWMGWINGGSGDTKYSRKFQGRVTITKDTSASAAYMELSSLGSEDTALYYCARATYDPLTGYSFDGFDIWGQGTLVTVSSGGGGSGGGGSGGGGSQSVLTQPASVSGSPGQSITISCTGTSSDVGGYNYVSWYQQHPGKAPKLMIYDVSKRPSGVPDRFSGSKSGNTASLTISGLQAEDEGDYYCSSYAGPSRVFGGGTKVEIKR
For B1, the binding result in assay [1] is “binds”; in assay [2], “no binding”; in assay [3], “no binding”; in assay [4] it was “no binding”; in assay [5], “no binding”; in assay [6], “binds”.

B2: I022E02 (scFv)
scFv: QVQLVQSGAEVKKPGASVMVSCKASGYTFSTYAVHWVRQAPGQGLEWMGRINAGNGYTKYSQKFQGRVTITKDTSASAAYMELSSLGSEDTALYYCARATYDPLTGYSFDGLDIWGKGTMVTVSSGGGGSGGGGSGGGGSQSVLTQPASVSGSPGQSITISCTGTSSDVGGYNYVSWYQQHPGKAPKLMIYEGSKRPSGVSNRFSGSKSGNTASLTISGLQAEDEADYYCSSYTTRSTRVFGGGTKLTVLG
Take B2: the binding result is reported as “binds” in assay [1]; “no binding” in assay [2]; “no binding” in assay [3]; “no binding” in assay [4]; “no binding” in assay [5]; “binds” in assay [6].

B3: I008B01 (scFv)
scFv: QVQLVQSGAEVMKPGASVKVSCKASGYNFNNYAMQWVRQAPGQRLEWMGWIVPGNGKTKYSQKFQDRVTIARDTSASTVYMELSSLTSEDTAMYYCARATYDPLTGYSFDGFDIWGQGTTVTVSSGGGGSGGGGSGGGGSQSVLTQPASVSGSPGQSITISCTGTSSDVGGYNYVSWYQQHPGKAPKLMIYEGSKRPSGVSNRFSGSKSGNTASLTISGLQAEDEADYYCSSYTTRSTRVFGGGTKLTVLG
With B3, the binding result in assay [1] is given as “binds”; in assay [2], “no binding”; in assay [3], “no binding”; in assay [4], “no binding”; in assay [5], “no binding”; in assay [6], “binds”.

B4: I008C02 (scFv)
scFv: AVQLQESGPGLVKPSETLSLTCSVSGASMTTNKFYWSWIRQPPGKGLEWIGNINYSKSTNYNPSLKSRITISVDTSKNQLSLKLNSVTAADTAVYYCARHVRDYDILTGYYRGHYFDYWGQGTMVTVSSGGGGSGGGGSGGGGSQSVLTQPASVSGSPGQSITISCTGTSSDVGGYNYVSWYQQHPGKAPKLMIYEGSKRPSGVSNRFSGSKSGNTASLTISGLQAEDEADYYCSSYTTRSTRVFGGGTKLTVLG
In the case of B4, the binding result is “binds” in assay [1]; “no binding” in assay [2]; “no binding” in assay [3]; “no binding” in assay [4]; “no binding” in assay [5]; “binds” in assay [6].

B5: I003F12S (scFv)
scFv: QVQLLQSAAELKKPGQSLKISCKGSGFTFTTYWIGWVRQLPGKGLEWMGIIYPGDSHTTYSPSFEGHVNISVDKSINTAYLQWSSLKASDTAMYYCARHDDDVLTGYYFESWGQGTMVTVSSGGGGSGGGGSGGGGSQSVLTQPASVSGSPGQSITISCTGTSSDVGGYNYVSWYQQHPGKAPKLMIYEGSKRPSGVSNRFSGSKSGNTASLTISGLQAEDEADYYCSSYTTRSTRVFGGGTKLTVLG
For B5, the binding result in assay [2], in assay [3], in assay [4] and in assay [5] was “no binding” throughout.

B6: I001C09 (scFv)
scFv: GVQLVQSGPEVKKPGASVKVSCTASGYTFTSYGVSWVRQAPGQGLEWIGWISAHNGQTKYAEKFQGRVTMTRNTSISTAYMELSSLRSEDTAVYYCARDGSYDILTGYYIDNYMDVWGKGTMVTVSSGGGGSGGGGSGGGGSSELTQDPAVSVALGQTVRITCQGDSLRSYYTNWFQQKPGQAPLLVVYAKNKRPSGIPDRFSGSSSGNTASLTITGAQAEDEADYYCHSRDSSGNHVLFGGGTKLTVLG
Regarding B6, the binding result in assay [1] was “binds”; in assay [3] it was “no binding”; in assay [4] it was “no binding”; in assay [5], “no binding”; in assay [6] it was “binds”.

B7: I018D07 (scFv)
scFv: B6 scFv with K19I
For the molecule B7, the binding result in assay [1] is “binds”; in assay [3] it was “no binding”; in assay [4] it was “no binding”; in assay [5], “no binding”; in assay [6], “binds”.

B8: I018C02 (scFv)
scFv: QVQLQQSGSELKKPGASVIVSCKVSGYSLTKMSMHWVRQSPGEGLEWVGGIDPETRQPVYAQKFQGRVTITKDTSASAAYMELSSLGSEDTALYYCARATYDPLTGYSFDGFDIWGQGTLVTVSSGGGGSGGGGSGGGGSQSVLTQPASVSGSPGQSITISCTGTSSDVGGYNYVSWYQQHPGKAPKLMIYEGSKRPSGVSNRFSGSKSGNTASLTISGLQAEDEADYYCSSYTTRSTRVFGGGTKLTVLG
Regarding B8, the binding result in assay [1] is “binds”; in assay [2], “no binding”; in assay [3] it was “no binding”; in assay [4] it was “no binding”; in assay [5] it was “no binding”; in assay [6], “binds”.

B9: I016E05 (scFv)
scFv: QVQLQQSGAEVKKPGASVKVSCKASGYTFTKYTMHWVRQAPGQGPEWMGWINGGSGDTKYSRKFQGRVTITKDTSASAAYMELSSLGSEDTALYYCARATYDPLTGYSFDGFDIWGKGTMVTVSSGGGGSGGGGSGGGGSQSALTQPASVSGSPGQSITISCTGTSSDVGGYNYVSWYQQHPGKAPKLMIYEGSKRPSGVSNRFSGSKSGNTASLTISGLQAEDEADYYCSSYTTRSTRVFGGGTKLTVLG
As for B9, the binding result in assay [1] is listed as “binds”; in assay [2], “no binding”; in assay [3] it was “no binding”; in assay [4], “no binding”; in assay [5], “no binding”; in assay [6], “binds”.

B10: I018H08 (scFv)
scFv: B9 scFv with K19N, K117Q, A143V, V249I
notes: also called 1018H08
Regarding B10, the binding result was “binds” in assay [1]; “no binding” in assay [2]; “no binding” in assay [3]; “no binding” in assay [4]; “no binding” in assay [5]; “binds” in assay [6].

B11: I018H09 (scFv)
scFv: B9 scFv with A79T, A143V
B11: the binding result in assay [1] is recorded as “binds”; in assay [2] it was “no binding”; in assay [3], “no binding”; in assay [4], “no binding”; in assay [5] it was “no binding”; in assay [6], “binds”.

B12: I061E07 (scFv)
scFv: QVQLQQSGAEVKKTGASVKVSCKASGYIFADYYVHWVRQAAGQGLEWMGWINPNTGSTKYAQKFQDRVTMTRDTSIKTVYMELRRLRSDDTALYYCARATYDPLTGYSFDGFDIWGKGTMVTVSSGGGGSGGGGSGGGGSQSVLTQPPSASGTPGQRVTISCSGSSSNIGSNTVNWYQRLPGAAPQLLIYNNDQRPSGIPDRFSGSKSGTSGSLVISGLQSEDEADYYCASWDDSLNGRVFGGGTKLTVLG
On to B12, for which the binding result in assay [1] is “binds”; in assay [2], “no binding”; in assay [3], “no binding”; in assay [4], “no binding”; in assay [5], “no binding”; in assay [6], “binds”.

B13: I006D07 (scFv)
scFv: EVQLVESGGGVVQPGGSLRLSCAASGFTVNSYAMHWVRQAPGKGLQWVAVIPYDGSKKYYADSVKGRFTVSRDNSKNTLYLQMNSLRAEDTAVYYCARSHYDILTGLNYWYFDLWGRGTLVTVSSGGGGSGGGGSGGGGSSELTQDPAVSVALGQTVRITCQGDSLRSYYASWYQQKPGQAPVLVIYGKNNRPSGIPDRFSGSSSGNTASLTITGAQAEDEADYYCNSRGSSGNHVVFGGGTKLTVLG
Take B13: the binding result in assay [1] is “binds”; in assay [2] it was “no binding”; in assay [3] it was “no binding”; in assay [4], “no binding”; in assay [5] it was “no binding”; in assay [6], “binds”.
